Reference: publication PMC11343034, “CDCA7 is an evolutionarily conserved hemimethylated DNA sensor in eukaryotes”

Assays:
CDCA7L 322-454 = biological target: T1, CDCA7L 322-454 (Homo sapiens, UniProt Q96GN5 322-454); test: pull-down; egg extract; Oligo EMSA: 20 mM Tris-HCl pH 7.5, 150 mM NaCl, 1 mM DTT, 0.05% NP-40, 10% glycerol, 4 C, 0.5 uM DNA; nucleosome EMSA: same with 50 mM NaCl, 0.1 uM nucleosome; conditions: protein: ivt; tags: 35S-Met; label: 5' biotin on strand 2; blunt
T1 sequence: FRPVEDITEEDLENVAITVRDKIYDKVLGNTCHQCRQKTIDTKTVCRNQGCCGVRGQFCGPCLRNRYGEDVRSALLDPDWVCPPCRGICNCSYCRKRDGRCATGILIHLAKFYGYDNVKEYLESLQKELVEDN

[1] = biological target: T2, N. vectensis CDCA7 homolog (Nematostella vectensis, UniProt A7SQU1 1-157); test: pull-down; boiled extract; Oligo EMSA: 20 mM Tris-HCl pH 7.5, 150 mM NaCl, 1 mM DTT, 0.05% NP-40, 10% glycerol, 4 C, 0.5 uM DNA; nucleosome EMSA: same with 50 mM NaCl, 0.1 uM nucleosome; conditions: protein: ivt; tags: 35S-Met; label: 5' biotin on strand 2; blunt
T2 sequence: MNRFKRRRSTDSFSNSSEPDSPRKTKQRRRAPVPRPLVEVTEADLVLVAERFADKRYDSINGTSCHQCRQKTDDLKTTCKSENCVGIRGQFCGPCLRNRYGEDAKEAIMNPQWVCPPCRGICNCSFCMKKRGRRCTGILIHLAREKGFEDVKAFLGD

C. gigas CDCA7 homolog = biological target: T3, C. gigas CDCA7 homolog (Crassostrea gigas, UniProt A0A8W8IWK5 1-264); test: as above; conditions: protein: ivt; tags: 35S-Met; label: 5' biotin on strand 2; blunt
T3 sequence: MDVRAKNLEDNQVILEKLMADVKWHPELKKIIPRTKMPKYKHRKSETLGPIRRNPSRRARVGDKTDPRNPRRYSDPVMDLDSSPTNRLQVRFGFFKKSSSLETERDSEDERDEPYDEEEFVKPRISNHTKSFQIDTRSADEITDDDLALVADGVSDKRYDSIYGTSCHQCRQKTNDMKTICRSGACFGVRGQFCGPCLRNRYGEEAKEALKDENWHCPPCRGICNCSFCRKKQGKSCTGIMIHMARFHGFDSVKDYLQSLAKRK

[2] = biological target: T4, A. thaliana CDCA7 homolog (Arabidopsis thaliana, UniProt Q0WPT6 1-417); test: as above; conditions: protein: ivt; tags: 35S-Met; label: 5' biotin on strand 2; blunt
T4 sequence: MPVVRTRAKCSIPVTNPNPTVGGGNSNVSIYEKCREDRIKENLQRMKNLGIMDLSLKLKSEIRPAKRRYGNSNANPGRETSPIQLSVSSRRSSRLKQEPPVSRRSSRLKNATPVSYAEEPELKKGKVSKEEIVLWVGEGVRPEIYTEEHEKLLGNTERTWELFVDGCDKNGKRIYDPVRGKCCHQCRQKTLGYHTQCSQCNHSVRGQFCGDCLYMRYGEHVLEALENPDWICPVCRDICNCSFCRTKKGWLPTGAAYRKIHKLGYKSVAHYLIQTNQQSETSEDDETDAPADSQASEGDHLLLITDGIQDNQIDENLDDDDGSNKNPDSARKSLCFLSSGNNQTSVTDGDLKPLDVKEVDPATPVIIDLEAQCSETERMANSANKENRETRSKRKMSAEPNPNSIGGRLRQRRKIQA

hCDCA7 264-371 C339S = biological target: T5, hCDCA7 264-371 C339S (Homo sapiens, UniProt Q9BWT1 264-371, C339S); test: EMSA; free DNA preferred over nucleosome; Oligo EMSA: 20 mM Tris-HCl pH 7.5, 150 mM NaCl, 1 mM DTT, 0.05% NP-40, 10% glycerol, 4 C, 0.5 uM DNA; nucleosome EMSA: same with 50 mM NaCl, 0.1 uM nucleosome; conditions: protein: recombinant; tags: GST-SUMO removed; blunt
T5 sequence: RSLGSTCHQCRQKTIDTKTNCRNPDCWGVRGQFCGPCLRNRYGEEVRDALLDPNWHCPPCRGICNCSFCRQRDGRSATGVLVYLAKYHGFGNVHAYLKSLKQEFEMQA

B1: 54-bp hemi-Me (F) (dsDNA)
DNA 1: GCGGGTGATGGACCCTATACGCGGCCGCCCTGGAGAATCCCGGTGCCGCGGCCG
DNA 2: CGGCCGCGGCACCGGGATTCTCCAGGGCGGCCGCGTATAGGGTCCATCACCCGC
modifications: 5mC at 41,47,49,53 of strand 1
CDCA7L 322-454
  binding result: binds
[1]
  binding result: binds
C. gigas CDCA7 homolog
  binding result: binds
[2]
  binding result: binds

B2: -62W free DNA (dsDNA)
DNA 1: ATCAGAATCCCGGTGCCGAGGCCGCTCAATTGGTCGTAGACAGCTCTAGCACCGCTTAAACGCACGTACGCGCTGTCCCCCGCGTTTTAACCGCCAAGGGGATTACTCCCTAGTCTCCAGGCACGTGTCAGATATATACATCGAT
DNA 2: ATCGATGTATATATCTGACACGTGCCTGGAGACTAGGGAGTAATCCCCTTGGCGGTTAAAACGCGGGGGACAGCGCGTACGTGCGTTTAAGCGGTGCTAGAGCTGTCTACGACCAATTGAGCGGCCTCGGCACCGGGATTCTGAT
modifications: 5mC at 11 of strand 1
hCDCA7 264-371 C339S
  binding result: binds

B3: -64C free DNA (dsDNA)
DNA 1: ATCAGAATCCCGGTGCCGAGGCCGCTCAATTGGTCGTAGACAGCTCTAGCACCGCTTAAACGCACGTACGCGCTGTCCCCCGCGTTTTAACCGCCAAGGGGATTACTCCCTAGTCTCCAGGCACGTGTCAGATATCGACATCGAT
DNA 2: ATCGATGTCGATATCTGACACGTGCCTGGAGACTAGGGAGTAATCCCCTTGGCGGTTAAAACGCGGGGGACAGCGCGTACGTGCGTTTAAGCGGTGCTAGAGCTGTCTACGACCAATTGAGCGGCCTCGGCACCGGGATTCTGAT
modifications: 5mC at 9 of strand 2
hCDCA7 264-371 C339S
  binding result: binds
